Assay results as given in the supplement of paper PMC12855868.

B1: library; numbered along this chain (parent)
chain: MAAAGGARLLRAASAVLGGPAGRWLHHAGSRAGSSGLLRNRGPGGSAEASRSLSVSARARSSSEDKITVHFINRDGETLTTKGKVGDSLLDVVVENNLDIDGFGACEGTLACSTCHLIFEDHIYEKLDAITDEENDMLDLAYGLTDRSRLGCQICLTKSMDNMTVRVPETVADARQSIDVGKTS

Variants of: B1
Experiment: scaled log2 fold change in cell abundance, elesclomol vs control (0 = silent mean, 1 = nonsense mean) (scaled log2 ratio); higher = higher viability under elesclomol (loss of FDX1 cuproptosis function)
Details: glucose 10 mM
[1] = with ABC1 FDX1 KO, elesclomol 5 nM, 14 days
[2] = with HEK293T FDX1 KO, elesclomol 40 nM, 11 days
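Also: variant abundance is its share of total variant reads in each endpoint sample, from next-generation sequencing of the integrated ORF PCR-amplified out of genomic DNA.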

| Variant | scaled log2 fold change [1] | scaled log2 fold change [2] |
| --- | --- | --- |
| MAAAGGARLLRAASAVLGGPAGRWLHHAGSRAGSSGLLRNRGPGGSAEASRSLSVSARARSSSEDKITVHFINRDGETLTTKGKVGDSLLDVKVENNLDIDGFGACEGTLACSTCHLIFEDHIYEKLDAITDEENDMLDLAYGLTDRSRLGCQICLTKSMDNMTVRVPETVADARQSIDVGKTS [V93K] | -0.498 | – |
| MAAAGGARLLRAASAVLGGPAGRWLHHAGSRAGSSGLLRNRGPGGSAEASRSLSVSARARSSSEDKITVHFINRDGETLTTKGKVGDSLLDVGVENNLDIDGFGACEGTLACSTCHLIFEDHIYEKLDAITDEENDMLDLAYGLTDRSRLGCQICLTKSMDNMTVRVPETVADARQSIDVGKTS [V93G] | 0.574 | -0.293 |
| MAAAGGARLLRAASAVLGGPAGRWLHHAGSRAGSSGLLRNRGPGGSAEASRSLSVSARARSSSEDKITVHFINRDGETLTTKGKVGDSLLDVNVENNLDIDGFGACEGTLACSTCHLIFEDHIYEKLDAITDEENDMLDLAYGLTDRSRLGCQICLTKSMDNMTVRVPETVADARQSIDVGKTS [V93N] | 0.524 | 0.217 |
| MAAAGGARLLRAASAVLGGPAGRWLHHAGSRAGSSGLLRNRGPGGSAEASRSLSVSARARSSSEDKITVHFINRDGETLTTKGKVGDSLLDVLVENNLDIDGFGACEGTLACSTCHLIFEDHIYEKLDAITDEENDMLDLAYGLTDRSRLGCQICLTKSMDNMTVRVPETVADARQSIDVGKTS [V93L] | 0.0816 | 0.422 |
| MAAAGGARLLRAASAVLGGPAGRWLHHAGSRAGSSGLLRNRGPGGSAEASRSLSVSARARSSSEDKITVHFINRDGETLTTKGKVGDSLLDVCVENNLDIDGFGACEGTLACSTCHLIFEDHIYEKLDAITDEENDMLDLAYGLTDRSRLGCQICLTKSMDNMTVRVPETVADARQSIDVGKTS [V93C] | -0.0745 | 0.258 |
| MAAAGGARLLRAASAVLGGPAGRWLHHAGSRAGSSGLLRNRGPGGSAEASRSLSVSARARSSSEDKITVHFINRDGETLTTKGKVGDSLLDVQVENNLDIDGFGACEGTLACSTCHLIFEDHIYEKLDAITDEENDMLDLAYGLTDRSRLGCQICLTKSMDNMTVRVPETVADARQSIDVGKTS [V93Q] | 0.0948 | -0.698 |
| MAAAGGARLLRAASAVLGGPAGRWLHHAGSRAGSSGLLRNRGPGGSAEASRSLSVSARARSSSEDKITVHFINRDGETLTTKGKVGDSLLDVIVENNLDIDGFGACEGTLACSTCHLIFEDHIYEKLDAITDEENDMLDLAYGLTDRSRLGCQICLTKSMDNMTVRVPETVADARQSIDVGKTS [V93I] | 0.123 | -0.612 |
| MAAAGGARLLRAASAVLGGPAGRWLHHAGSRAGSSGLLRNRGPGGSAEASRSLSVSARARSSSEDKITVHFINRDGETLTTKGKVGDSLLDVEVENNLDIDGFGACEGTLACSTCHLIFEDHIYEKLDAITDEENDMLDLAYGLTDRSRLGCQICLTKSMDNMTVRVPETVADARQSIDVGKTS [V93E] | 0.231 | -0.85 |
| MAAAGGARLLRAASAVLGGPAGRWLHHAGSRAGSSGLLRNRGPGGSAEASRSLSVSARARSSSEDKITVHFINRDGETLTTKGKVGDSLLDVRVENNLDIDGFGACEGTLACSTCHLIFEDHIYEKLDAITDEENDMLDLAYGLTDRSRLGCQICLTKSMDNMTVRVPETVADARQSIDVGKTS [V93R] | 0.275 | 0.16 |
| MAAAGGARLLRAASAVLGGPAGRWLHHAGSRAGSSGLLRNRGPGGSAEASRSLSVSARARSSSEDKITVHFINRDGETLTTKGKVGDSLLDVMVENNLDIDGFGACEGTLACSTCHLIFEDHIYEKLDAITDEENDMLDLAYGLTDRSRLGCQICLTKSMDNMTVRVPETVADARQSIDVGKTS [V93M] | 0.416 | 0.244 |
| MAAAGGARLLRAASAVLGGPAGRWLHHAGSRAGSSGLLRNRGPGGSAEASRSLSVSARARSSSEDKITVHFINRDGETLTTKGKVGDSLLDVPVENNLDIDGFGACEGTLACSTCHLIFEDHIYEKLDAITDEENDMLDLAYGLTDRSRLGCQICLTKSMDNMTVRVPETVADARQSIDVGKTS [V93P] | 0.924 | 0.209 |
| MAAAGGARLLRAASAVLGGPAGRWLHHAGSRAGSSGLLRNRGPGGSAEASRSLSVSARARSSSEDKITVHFINRDGETLTTKGKVGDSLLDVSVENNLDIDGFGACEGTLACSTCHLIFEDHIYEKLDAITDEENDMLDLAYGLTDRSRLGCQICLTKSMDNMTVRVPETVADARQSIDVGKTS [V93S] | 0.115 | -0.534 |
| MAAAGGARLLRAASAVLGGPAGRWLHHAGSRAGSSGLLRNRGPGGSAEASRSLSVSARARSSSEDKITVHFINRDGETLTTKGKVGDSLLDVTVENNLDIDGFGACEGTLACSTCHLIFEDHIYEKLDAITDEENDMLDLAYGLTDRSRLGCQICLTKSMDNMTVRVPETVADARQSIDVGKTS [V93T] | -0.217 | -0.372 |
| MAAAGGARLLRAASAVLGGPAGRWLHHAGSRAGSSGLLRNRGPGGSAEASRSLSVSARARSSSEDKITVHFINRDGETLTTKGKVGDSLLDVFVENNLDIDGFGACEGTLACSTCHLIFEDHIYEKLDAITDEENDMLDLAYGLTDRSRLGCQICLTKSMDNMTVRVPETVADARQSIDVGKTS [V93F] | 0.266 | -0.377 |
| MAAAGGARLLRAASAVLGGPAGRWLHHAGSRAGSSGLLRNRGPGGSAEASRSLSVSARARSSSEDKITVHFINRDGETLTTKGKVGDSLLDVDVENNLDIDGFGACEGTLACSTCHLIFEDHIYEKLDAITDEENDMLDLAYGLTDRSRLGCQICLTKSMDNMTVRVPETVADARQSIDVGKTS [V93D] | 0.877 | 0.496 |
| MAAAGGARLLRAASAVLGGPAGRWLHHAGSRAGSSGLLRNRGPGGSAEASRSLSVSARARSSSEDKITVHFINRDGETLTTKGKVGDSLLDVWVENNLDIDGFGACEGTLACSTCHLIFEDHIYEKLDAITDEENDMLDLAYGLTDRSRLGCQICLTKSMDNMTVRVPETVADARQSIDVGKTS [V93W] | 0.155 | 0.488 |
| MAAAGGARLLRAASAVLGGPAGRWLHHAGSRAGSSGLLRNRGPGGSAEASRSLSVSARARSSSEDKITVHFINRDGETLTTKGKVGDSLLDVHVENNLDIDGFGACEGTLACSTCHLIFEDHIYEKLDAITDEENDMLDLAYGLTDRSRLGCQICLTKSMDNMTVRVPETVADARQSIDVGKTS [V93H] | -0.124 | -0.875 |
